Experimental data taken from US6713280 (THOMAS JEFFERSON UNIVERSITY, dated 2004).
No end group written: not given here. *: point of attachment. Decanoyl = CCCCCCCCCC(=O)*

Experiments:
GST-Bcl-2 protein = molecular target: T1, GST-Bcl-2 protein (UniProt P10415 1-205, limits assumed); test: fluorescence polarization competition; 30 nM Flu-SEQ ID NO:30, 0.5 µM GST-Bcl-2, conjugate at 0.005-0.32 µM, 30 minutes at 37° C.
T1 construct: not shown: GST tag

Bax = Bax (UniProt Q07812 1-171, limits assumed); test: fluorescence polarization, FIG. 2: C
Bax, sequence (Q07812 1-171 limits assumed): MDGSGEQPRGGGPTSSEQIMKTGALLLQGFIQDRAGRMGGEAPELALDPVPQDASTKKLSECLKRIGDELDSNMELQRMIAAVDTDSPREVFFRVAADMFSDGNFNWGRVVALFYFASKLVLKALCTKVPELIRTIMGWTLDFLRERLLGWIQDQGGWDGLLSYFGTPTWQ

[1] = molecular target: T2, SH3 domain of the Bcr-Abl oncoprotein (UniProt P00519 61-121); test: fluorescence polarization, FIG. 2: D
T2 construct: domain: SH3 domain; also called Bcr-Abl SH3
T2 sequence (P00519 61-121 limits assumed): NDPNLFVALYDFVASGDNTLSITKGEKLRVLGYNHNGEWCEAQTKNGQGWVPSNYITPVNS

CD4 = CD4 (UniProt P01730 26-396, limits assumed); test: fluorescence polarization, FIG. 2: E

T1 sequence (P10415 1-205 limits assumed): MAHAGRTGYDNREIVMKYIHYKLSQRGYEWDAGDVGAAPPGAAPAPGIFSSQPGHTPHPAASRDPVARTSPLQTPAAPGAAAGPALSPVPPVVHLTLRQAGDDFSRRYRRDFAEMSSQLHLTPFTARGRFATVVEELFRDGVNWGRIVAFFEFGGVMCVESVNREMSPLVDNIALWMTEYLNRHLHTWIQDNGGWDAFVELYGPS

Decanoyl-KNLWAAQRYGRELRRMSDEFEGSFKGL (also called decyl-K1285) [decyl-SEQ ID NO:56 (CH3(CH2)8COHN-KNLWAAQRYGRELRRMSDEFEGSFKGL)]
EC50 (GST-Bcl-2 protein): 130 nM

B1: fluorescein-labeled peptide SEQ ID NO:30 (Flu-SEQ ID NO:30) (peptide)
peptide: GQVGRQLAIIGDDINR
modifications: also: fluorescein label, site of attachment not given here
notes: Synthetic peptide labeled with fluorescein; tracer of the fluorescence polarization assay; also called fluoresceinated BakBH3 peptide; Flu-SQ30
binding result (Bax): no binding | binding result [1]: no binding | binding result (CD4): no binding
